The results in this text go back to paper PMC2686680, “Chibby forms a homodimer through a heptad repeat of leucine residues in its C-terminal coiled-coil motif” (BMC Molecular Biology, 2009).

Sequences and labels used below:
B1: Cby wild type fused to the N-terminal (RN) or C-terminal (RC) portion of synthetic Renilla luciferase (hRluc) [human] / itself (parent complex)
chain: MPFFGNTFSPKKTPPRKSASLSNLHSLDRSTREVELGLEYGSPTMNLAGQSLKFENGQWIAETGVSGGVDRREVQRLRRRNQQLEEENNLLRLKVDILLDMLSESTAESHLMEKELDELRISRKRK

This assay covers variants of B1. Kind of assay: split hRluc protein-fragment-assisted complementation assay; HEK293T cells; expression plasmids 400 ng each; triplicate, means ± SD; read off a plot.
Regarding chain 1 L77A, chain 1 L91A, the response is roughly 0.55.
On to chain 1 L91A, for which the response was roughly 4.
In the case of chain 1 L91A, chain 1 L98A, the response is roughly 0.7.
To chain 1 L77A, chain 1 L84A, chain 1 L91A, chain 1 L98A belongs roughly 0.5; to chain 1 L84A, roughly 1.9; to chain 1 L77A, chain 1 L84A, roughly 0.18.
The value for chain 1 L84A, chain 1 L98A was roughly 0.28; that for chain 1 L77A was roughly 3.2.
On to chain 1 L98A, for which the response is roughly 5.4.
